One experiment concerns the target CXCL10 (Homo sapiens, UniProt P02778). Description: ELISA. A general note: An ELISA detects its analyte on a solid surface through an enzyme-linked reagent.
The target in a further experiment is T1, CXCL11 (Homo sapiens, UniProt O14625).
T1 chain: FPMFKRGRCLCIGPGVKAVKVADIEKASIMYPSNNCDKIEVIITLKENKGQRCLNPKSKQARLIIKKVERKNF
Description: ELISA.

Sequence of CXCL10 (P02778 22-94): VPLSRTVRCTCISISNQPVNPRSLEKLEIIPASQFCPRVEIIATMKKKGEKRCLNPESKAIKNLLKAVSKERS

B1: Fg β15-66 15-66 (protein)
chain: MKHLLLLLLCVFLVKSQGVNDNEEGFFSARGHRPLDKKREEAPSLRPAPPPI
Take B1: the Kd in the experiment with CXCL10 stood at 68 nM; in the experiment with CXCL11, 67 nM.

Usually Kd stands for the concentration at which binding is half-saturated. The low end stands for a tighter complex, the high end for a looser complex.

Values taken from publication PMC3808276 (2013).
